Assay results: article PMC11883000, “Structure-function relationship of ASH1L and histone H3K36 and H3K4 methylation” (Nature Communications, 2025)
Ends that are not written are not given here. Me2 = dimethylation (dimethyl-lysine)

How the values were obtained:
[1] = biological target: T1, ASH1L plant homeodomain (PHD) finger, wild type (aa 2579-2629) (human, UniProt Q9NR48 2579-2629); assay: NMR titration; 1H,15N HSQC chemical shift perturbation; unlabelled ligand (histone peptide or ASH1LSET) added to 0.1-0.2 mM 15N-labelled protein; 298 K; 25 mM Tris pH 7.5, 150 mM NaCl, 5 mM DTT; settings: both partners purified
T1 construct: ASH1L, human, PHD finger, aa 2579-2629; 15N-labelled for NMR; also called ASH1LPHD; ASH1L PHD; source: E. coli BL21 or Rosetta2 (DE3) pLysS, purified (glutathione agarose, SEC)

[2] = biological target: T2, ASH1L tandem bromodomain-PHD finger (aa 2436-2638) (human, UniProt Q9NR48 2436-2638); assay: NMR solution structure; 0.5 mM ASH1L_(BD-PHD) with H3K4me2 peptide (aa 1-15); 298 K; 200 mM sodium phosphate pH 6.3, 5 mM DTT; settings: both partners purified
T2 construct: ASH1L, human, bromodomain and PHD finger, aa 2436-2638 (NMR structure sample); 13C/15N-labelled and 75% deuterated; The protein expression section lists ASH1L_(BD-PHD) as aa 2430-2629 (GST fusion, E. coli); the NMR structure section gives aa 2436-2638; also called ASH1L_(BD-PHD)

**Q.** ARTK(Me)QTARKSTG (peptide, UniProt P68431 2-13, looked up, histone H3, residues 1-12) [histone H3K4me1 peptide (aa 1-12 of H3)] was tested. Which Kd [1] did it give?
**A.** 0.119 mM

**Q.** Does ARTK(Me2)QTARKSTGGKA (peptide, UniProt P68431 2-16, looked up, histone H3, residues 1-15) [histone H3K4me2 peptide (aa 1-15 of H3)] bind [2]?
**A.** binds

**Q.** How did the Kd [1] turn out when ARTKQTARKSTG (peptide, UniProt P68431 2-13, looked up, histone H3, residues 1-12) [histone H3K4me0 (unmodified) peptide (aa 1-12 of H3)] was run?
**A.** 1.9 mM
